Residue numbers refer to the chain shown, from its start. In names and notes the source's numbering stands. Where no end group is shown, it is not given here.
Assays:
Atg8 [1] = biological target: T1, Atg8 (Saccharomyces cerevisiae, UniProt P38182, K26P); assay: biochemical; type: binding
T1 construct: Atg8 1–117; GST (N, cleaved yes); made in house; host or cells: Escherichia coli Rosetta pLysS DE3
Excerpt: To test this hypothesis, we titrated 12 amino acid-long peptides containing the respective LIR-like motif in the center (Fig. 1) into labeled Atg8 and recorded the CSCs (Fig. 5). […] We attempted to determine a more exact Kd for the FYSF and LPEL peptides by isothermal titration calorimetry.
To corroborate our NMR-based interactions studies, we attempted to measure their interaction with Atg8 by isothermal titration calorimetry.

[2] = biological target: GST-Atg19 CTD W412A (S. cerevisiae) (UniProt P35193); assay: microscopy-based protein-protein interaction assay on beads; glutathione-Sepharose beads coated with GST-Atg19 CTDs, washed, in 1 μM EGFP-Atg8 solution, 25 mM HEPES pH 7.5, 150 mM NaCl, 1 mM DTT; imaged by spinning disc microscopy without washing; signal normalized to wild type
[3] = biological target: GST-Atg19 CTD L384A, L387A (S. cerevisiae) (UniProt P35193); assay: as above
[4] = biological target: GST-Atg19 CTD F376A, F379A, L384A, L387A (S. cerevisiae) (UniProt P35193); assay: as above
EGFP-Atg8 = assay: Microscopy-based protein-protein interaction assay: EGFP-Atg8 recruited to glutathione-Sepharose beads coated with GST-Atg19 CTD; type: binding, Saccharomyces cerevisiae; conditions: GST-tagged Atg19 CTD on glutathione-Sepharose beads, 1 μM EGFP-Atg8, 30 min, spinning disc microscopy; mean of 3 experiments
Excerpt: To confirm the contributions of the ^376FYSF^379 and ^384LPEL^387 motifs for Atg8 binding, we employed a microscopy-based protein-protein interaction assay. To this end, EGFP-Atg8 in solution was recruited to glutathione-Sepharose beads coated with GST-Atg19 C termini (Fig. 6, A and B). Atg8 bound efficiently to beads coated with the wild-type C terminus. Upon introduction of the W412A mutation, the Atg8 signal on the beads dropped to 23%.
FIGURE 6. Accessory LIR motifs contribute to Atg8 binding in a microscopy-based interaction assay. A, glutathione-Sepharose beads were coated with GST-tagged Atg19 CTDs, washed, incubated in a 1 μM EGFP-Atg8 solution, and imaged by spinning disc microscopy. B, signal intensity of EGFP-Atg8 decreased for the LIR and accessory LIR mutants. C, quantification of the EGFP signal (mean ± S.D. from 3 experiments) on GST-Atg19 CTD-coated beads normalized to the mean signal on wild-type GST-Atg19 CTD-coated beads. Scale bars = 30 μm. TEXT PRINTED IN THE PICTURE: (B) W412A: relative binding (%): 23% | (B) L384, L387A: relative binding (%): 47% | (B) F376, F379, L384, L387A: relative binding (%): 25% | (B) L384, L387, W412A: relative binding (%): 7% | (B) F376, F379, L384, L387, W412A: relative binding (%): 2%
Glutathione-Sepharose 4B beads (GE Healthcare) were incubated with GST-tagged Atg19 C terminus for 1 h at 4 °C. After washing the beads three times with 25 mM HEPES (pH 7.5), 150 mM NaCl, and 1 mM DTT, 1 μl of a 1:1 resuspension of glutathione beads in protein solution was added to a 1 μM solution of EGFP-Atg8 30 min prior to imaging. Microscopic images were acquired using a confocal spinning disc microscope (Visitron) and processed with ImageJ software.

Atg8 [5] = conditions: ITC-based Kd determination; read-out: Kd by ITC, full-length Atg19; cited from earlier work
[6] = biological target: Atg8 used for isothermal titration calorimetry (S. cerevisiae) (UniProt P38182); assay: ITC; peptides titrated, Atg8; conditions not given
[7] = biological target: T2, Atg8 K26P, 15N isotope-labeled (S. cerevisiae, UniProt P38182 1-117, K26P, 15N isotope-labeled); assay: NMR titration; unlabeled Atg19 CTD or peptide titrated into 15N-labeled Atg8 K26P; 2D 15N HSQC at 25 °C; Atg8 135-500 μM, Atg19 C terminus 15-1000 μM; Kd estimated as the median of one-site saturation fits of CSCs of four to twelve Atg8 residues; conditions: both partners purified
T2 construct: Atg8, S. cerevisiae, amino acids 1-117, K26P mutant used for stability in NMR; Cloned in pGEX-4-T1; GST cut off with thrombin; also called [15N]Atg8; K26P mutant of Atg8; source: E. coli Rosetta pLysS DE3 in M9 minimal medium with [15N]ammonium chloride, purified (glutathione beads, thrombin, SEC)
T2 sequence (looked up): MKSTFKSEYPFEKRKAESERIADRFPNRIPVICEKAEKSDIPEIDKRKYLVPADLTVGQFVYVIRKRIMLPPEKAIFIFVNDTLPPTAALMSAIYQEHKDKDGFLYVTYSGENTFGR

EGFP-Atg8, P38182 = biological target: T3, EGFP-Atg8, P38182; assay: microscopy-based protein-protein interaction assay (GST-Atg19 CTD on glutathione-Sepharose beads, spinning disc microscopy); conditions: chain shown with the change; 1 μm EGFP-Atg8 solution; parent: 100
T3 chain: T2 sequence (looked up) with P26K

GDDNEKALTWEEL [canonical LIR peptide]
Kd (Atg8 [1]): 2.8 µM

EGFP-Atg8 (from UniProt P38182 1-116) (natural protein)
EGFP-Atg8 signal on beads, percent of wild type [2]: 23% | EGFP-Atg8 signal on beads, percent of wild type [3]: 47% | EGFP-Atg8 signal on beads, percent of wild type [4]: 25%

B1: W412A (protein, UniProt P35193 1-415, looked up, variant W412A)
Autophagy-related protein 19: MNNSKTNQQMNTSMGYPLTVYDECNKFQLIVPTLDANIMLWCIGQLSLLNDSNGCKHLFWQPNDKSNVRILLNNYDYGHLFKYLQCQRKCSVYIGEGTLKKYNLTISTSFDNFLDLTPSEEKESLCREDAHEDPVSPKAGSEEEISPNSTSNVVVSRECLDNFMKQLLKLEESLNKLELEQKVTNKEPNHRISGTIDIPEDRSELVNFFTELKTVKQLEDVFQRYHDYERLSQECDSKTEIASDHSKKETKIEVEPPNERSLQITMNQRDNSLYFQLFNNTNSVLAGNCKLKFTDAGDKPTTQIIDMGPHEIGIKEYKEYRYFPYALDLEAGSTIEIENQYGEVIFLGKYGSSPMINLRPPSRLSAESLQASQEPFYSFQIDTLPELDDSSIISTSISLSYDGDDNEKALTAEEL
relative binding (EGFP-Atg8 signal on beads, normalized to wild-type GST-Atg19 CTD) (EGFP-Atg8): 23%

B2: L384A, L387A (protein, UniProt P35193 1-415, looked up, variant L384A L387A)
Autophagy-related protein 19: B1 Autophagy-related protein 19 with L384A, L387A, A412W
relative binding (EGFP-Atg8 signal on beads, normalized to wild-type GST-Atg19 CTD) (EGFP-Atg8): 47%

B3: F376, F379, L384, L387A (protein, UniProt P35193 1-415, looked up, variant F376A F379A L384A L387A)
Autophagy-related protein 19: B1 Autophagy-related protein 19 with F376A, F379A, L384A, L387A, A412W
relative binding (EGFP-Atg8 signal on beads, normalized to wild-type GST-Atg19 CTD) (EGFP-Atg8): 25%

B4: full-length Atg19: full-length Atg19 cargo receptor of S. cerevisiae (protein, UniProt P35193 1-415, looked up)
chain: B1 Autophagy-related protein 19 with A412W
modifications: full-length
notes: full-length Atg19 cargo receptor of S. cerevisiae
Kd (Atg8 [5]): 35 µM

B5: L384, L387, W412A (protein, UniProt P35193 1-415, looked up, variant L384A L387A W412A)
Autophagy-related protein 19: B1 Autophagy-related protein 19 with L384A, L387A
relative binding (EGFP-Atg8 signal on beads, normalized to wild-type GST-Atg19 CTD) (EGFP-Atg8): 7%

GDDNEKALTWEEL [peptide containing the canonical 412WEEL415 motif (Atg19, 403…415)]
Kd [6]: 2.8 µM

B6: Atg19 CTD (amino acids 365-407) F376A, F379A, L384A, L387A (domain or fragment, S. cerevisiae, UniProt P35193 365-407, looked up)
chain: SAESLQASQEPAYSAQIDTAPEADDSSIISTSISLSYDGDDNE
notes: Atg19, S. cerevisiae, amino acids 365-407 (last eight amino acids 408-415 deleted), F376A, F379A, L384A, L387A; also called FFLLΔ; source: E. coli Rosetta pLysS DE3, purified (glutathione beads, thrombin, SEC)
Kd [7]: 600 µM

QIDTLPELDDSS [12 amino acid peptide containing 384LPEL387 of Atg19]
Kd [7]: ~590 µM

SQEPFYSFQIDT [12 amino acid peptide containing 376FYSF379 of Atg19]
Kd [7]: ~330 µM

B7: GST-Atg19 CTD, wild type, P35193 L384A; L387A; W412A (protein)
chain: SAESLQASQEPFYSFQIDTAPEADDSSIISTSISLSYDGDDNEKALTAEEL
percent of parent (EGFP-Atg8, P38182): 7%

B8: Atg19 C-terminal domain (amino acids 365-415), wild type (domain or fragment, S. cerevisiae, UniProt P35193 365-415, looked up)
chain: B7 chain with A20L, A23L, A48W
notes: Atg19, S. cerevisiae, C-terminal domain, amino acids 365-415; also called Atg19 CTD; wild-type Atg19 C terminus; source: E. coli Rosetta pLysS DE3, purified (glutathione beads, thrombin, SEC)
Kd [7]: ~130 µM

B9: GST-Atg19 CTD, wild type, P35193 F376A; F379A; L384A; L387A; W412A (protein)
chain: B7 chain with F12A, F15A
percent of parent (EGFP-Atg8, P38182): 2%

B10: Atg19 CTD F376A, F379A, W412A (amino acids 365-415) (domain or fragment, S. cerevisiae, UniProt P35193 365-415, looked up)
chain: B7 chain with F12A, F15A, A20L, A23L
notes: Atg19, S. cerevisiae, C-terminal domain, amino acids 365-415, F376A, F379A, W412A; also called FFWA; triple mutant C terminus; source: E. coli Rosetta pLysS DE3, purified (glutathione beads, thrombin, SEC)
Kd [7]: 290 µM

B11: Atg19 CTD L384A, L387A (amino acids 365-415) (domain or fragment, S. cerevisiae, UniProt P35193 365-415, looked up)
chain: B7 chain with A48W
notes: Atg19, S. cerevisiae, C-terminal domain, amino acids 365-415, L384A, L387A; also called LLA; source: E. coli Rosetta pLysS DE3, purified (glutathione beads, thrombin, SEC)
Kd [7]: ~70 µM

B12: Atg19 W412A CTD (amino acids 365-415) (domain or fragment, S. cerevisiae, UniProt P35193 365-415, looked up)
chain: B7 chain with A20L, A23L
notes: Atg19, S. cerevisiae, C-terminal domain, amino acids 365-415, W412A; also called WA; W412A mutant Atg19 CTD; source: E. coli Rosetta pLysS DE3, purified (glutathione beads, thrombin, SEC)
Kd [7]: 180 µM
